# Source: patent US20240415974A1
# Numbering of substitutions follows the chain as printed. Names may count otherwise.
# B1: T028100069-bis-M6P(3x) (bispecific antibody)
# chain: DVQLVESGGGVVQPGGSLRLSCAASGFTFRSFGMSWVRQAPGKGPEWVSSISGSGSDTLYADSVKGRFTISRDNSKNTLYLQMNSLRPEDTALYYCTIGGSLSRSSQGTLVTVSSGGGGSGGGGSGGGGSEVQLVESGGGLVQAGGSLSISCAASGGSLSNYVLGWFRQAPGCEREFVAAINWRGDITIGPPNVEGRFTISRDNAKNTGYLQMNSLAPDDTAVYYCGAGTPLNPGAYIYCWSYDYWGCGTLVTVSS
# modifications: bisM6P-PEG4-maleimide conjugated to the thiols of the three engineered Cys of the ISVD-based building block (Kabat positions 43, 100f and 105 of SEQ ID NO.: 80); DOL by mass spec 2.90
# B2: T028100070-bis-M6P(3x) (bispecific antibody)
# chain: B1 chain with K206C, G235C, C240D, C248R
# modifications: bisM6P-PEG4-maleimide conjugated to the thiols of the three engineered Cys of the ISVD-based building block (Kabat positions 43, 75 and 100a of SEQ ID NO.: 81); DOL by mass spec 2.84
# B3: T028100075-bis-M6P(1x) (bispecific antibody)
# chain: DVQLVESGGGVVQPGGSLRLSCAASGFTFRSFGMSWVRQAPGKGPEWVSSISGSGSDTLYADSVKGRFTISRDNSKNTLYLQMNSLRPEDTALYYCTIGGSLSRSSQGTLVTVSSGGGGSGGGGSGGGGSEVQLVESGGGLVQAGGSLSISCAASGGSLSNYVLGWFRQAPGKEREFVAAINWRGDITIGPPNVEGRFTISRDNAKNTGYLQMNSLAPDDTAVYYCGAGTPLNPGAYIYDWSYDYWGRGTLVTVSSGGC
# modifications: bisM6P-PEG4-maleimide conjugated to the thiol of the C-terminal Cys (-GGC) of the building block (SEQ ID NO.: 175); DOL by mass spec 1.00
# Key:
# [1] = target: mannose 6-phosphate receptor (M6PR) on K-562 cells; assay: cell-based or functional assay
# [2] = target: mannose 6-phosphate receptor (M6PR) on K-562 cells; assay: flow cytometry on K-562 cells expressing M6PR; reference T028100075-bis-M6P(1x)
# [3] = target: mannose 6-phosphate receptor (M6PR) on K-562 cells; assay: flow cytometry on K-562 cells expressing M6PR, detection with HSA-biotin and streptavidin-phycoerythrin
Binder,"internalization potency on K-562 cells, EC50 [M] (HSA-pHAb, flow cytometry) [1]",increase in specific cell binding against the molecule with a single bisM6P (DOL 1) (orders of magnitude) [2],EC50 [3] [nM],decrease in internalization potency on K-562 cells against the 3x bis-M6P conjugates [1] [fold]
B1,3.86e-09,> 2,0.143,
B2,2.88e-09,> 2,0.154,
B3,5.64e-08,,,20
